{"source": "the Human Domainome abundance scans (Beltran et al. 2025)", "parents": {"B1": {"name": "Retinoic acid receptor beta, residues 85 to 161; numbered along this chain, P10826 (parent)", "chain": "YKPCFVCQDKSSGYHYGVSACEGCKGFFRRSIQKNMIYTCHRDKNCVINKVTRNRCQYCRLQKCFEVGMSKESVRND"}}, "note": "± gives the uncertainty stated by the source.", "data": [{"variants_of": "B1", "experiment": "abundance fitness (aPCA) (normalised: wild type 0, dead -1); higher = more abundant; growth selection in yeast, the domain comes from the species named", "conditions": "Homo sapiens", "values": [{"variant": "YKPCFVCQDKSSGYHYGVSACEGCKGFFRRSIQKNMIYTCHMDKNCVINKVTRNRCQYCRLQKCFEVGMSKESVRND", "note": "[R42M]", "abundance fitness": "0.228 ± 0.049"}, {"variant": "YKPCFVCQDKSSGYHYGVSACEGCKGFFRRSIQKNMIYTCHNDKNCVINKVTRNRCQYCRLQKCFEVGMSKESVRND", "note": "[R42N]", "abundance fitness": "0.115 ± 0.14"}, {"variant": "YKPCFVCQDKSSGYHYGVSACEGCKAFFRRSIQKNMIYTCHRDKNCVINKVTRNRCQYCRLQKCFEVGMSKESVRND", "note": "[G26A]", "abundance fitness": "-0.021 ± 0.045"}, {"variant": "YKPCFVCQDKSSGYHYGVSACEGCKGFFRRSIQKNMIYTCHRDKNCVINKVTRNRCQYCRLQKCFEVGMSKEGVRND", "note": "[S73G]", "abundance fitness": "0.017 ± 0.034"}, {"variant": "YKPCFVCQDKSSGYHYGVSACEGCKGFFRRSIQKNMIYTCHRDKNCVINKVTRNRCQYCRLQKCFEVGMSKEDVRND", "note": "[S73D]", "abundance fitness": "0.133 ± 0.056"}, {"variant": "YKPCFVCQDKSSGYHYGVSACEGCKGFFRRSIQKNMIYTCIRDKNCVINKVTRNRCQYCRLQKCFEVGMSKESVRND", "note": "[H41I]", "abundance fitness": "-0.064 ± 0.11"}, {"variant": "YKPCFVCQDKSSGYHYGVSACEGCKGFFRRSIQKNMIYTCHRDKGCVINKVTRNRCQYCRLQKCFEVGMSKESVRND", "note": "[N45G]", "abundance fitness": "-0.044 ± 0.082"}, {"variant": "YKPCFVCQDKSSGYHYGVSACEGCKGFFRRSIQKNMIYTCHRDKWCVINKVTRNRCQYCRLQKCFEVGMSKESVRND", "note": "[N45W]", "abundance fitness": "-0.302 ± 0.12"}, {"variant": "YKPCFVCQDKSSGYHYGVSACEGCKGFFRRSIQKNMIYTCHRDKLCVINKVTRNRCQYCRLQKCFEVGMSKESVRND", "note": "[N45L]", "abundance fitness": "0.02 ± 0.045"}, {"variant": "YKPCFVCQDKSEGYHYGVSACEGCKGFFRRSIQKNMIYTCHRDKNCVINKVTRNRCQYCRLQKCFEVGMSKESVRND", "note": "[S12E]", "abundance fitness": "-0.041 ± 0.044"}, {"variant": "YKPCFVCQDKSTGYHYGVSACEGCKGFFRRSIQKNMIYTCHRDKNCVINKVTRNRCQYCRLQKCFEVGMSKESVRND", "note": "[S12T]", "abundance fitness": "0.067 ± 0.058"}, {"variant": "YKPCFVCQDKSSGYHYGVSACEGCKGFFRRSIQKNMIYTCHRDKNCVINKVTRNRCQYCRLQKCFEVGMSKESVYND", "note": "[R75Y]", "abundance fitness": "0.118 ± 0.077"}, {"variant": "YKPCFVCQDKSSGYHYGVSACEGCKGFFRRSIQKNMIYTCHRDKNCVINKVTRNRCQYCRLQKCFEVGMSKESVWND", "note": "[R75W]", "abundance fitness": "0.065 ± 0.043"}, {"variant": "YKPCFGCQDKSSGYHYGVSACEGCKGFFRRSIQKNMIYTCHRDKNCVINKVTRNRCQYCRLQKCFEVGMSKESVRND", "note": "[V6G]", "abundance fitness": "-0.746 ± 0.076"}, {"variant": "YKPCFVCQDKSSGYHYGVSACEGCKGFFRRSIQKNMIYTCHRDKNCVINKVTRNRKQYCRLQKCFEVGMSKESVRND", "note": "[C56K]", "abundance fitness": "-0.978 ± 0.24"}, {"variant": "YKPCFVCQDKSSGYHYGVSACEGCKGFFRRSIQKNMIYTCHRDKNCVINKVTRNRCQYCRLIKCFEVGMSKESVRND", "note": "[Q62I]", "abundance fitness": "0.018 ± 0.074"}, {"variant": "YKPCFVCQDKSSGYHYGVSACEGCKGFFRRSIQKNMIYTCHRDKNCVINKVTRNRCQYCRLWKCFEVGMSKESVRND", "note": "[Q62W]", "abundance fitness": "-0.203 ± 0.047"}, {"variant": "VKPCFVCQDKSSGYHYGVSACEGCKGFFRRSIQKNMIYTCHRDKNCVINKVTRNRCQYCRLQKCFEVGMSKESVRND", "note": "[Y1V]", "abundance fitness": "0.158 ± 0.054"}, {"variant": "YKPCFVCQDKSSGYHYGVSACEGCKGFFRRSIQKNKIYTCHRDKNCVINKVTRNRCQYCRLQKCFEVGMSKESVRND", "note": "[M36K]", "abundance fitness": "0.01 ± 0.07"}, {"variant": "YKPCFVCQDKSSGYHYGVSACEGCKGFFRRSIQKNPIYTCHRDKNCVINKVTRNRCQYCRLQKCFEVGMSKESVRND", "note": "[M36P]", "abundance fitness": "-0.216 ± 0.098"}, {"variant": "YKPCFVCQDKSSGYHYGVSACEGCKGFFRRSYQKNMIYTCHRDKNCVINKVTRNRCQYCRLQKCFEVGMSKESVRND", "note": "[I32Y]", "abundance fitness": "-0.056 ± 0.099"}, {"variant": "YKPCEVCQDKSSGYHYGVSACEGCKGFFRRSIQKNMIYTCHRDKNCVINKVTRNRCQYCRLQKCFEVGMSKESVRND", "note": "[F5E]", "abundance fitness": "-0.38 ± 0.071"}, {"variant": "YKPCFVCQDKISGYHYGVSACEGCKGFFRRSIQKNMIYTCHRDKNCVINKVTRNRCQYCRLQKCFEVGMSKESVRND", "note": "[S11I]", "abundance fitness": "-0.27 ± 0.16"}, {"variant": "YKPCFVCQDKSSGYHYGVSACEGCKGFFRRSIQKNMIYTCHRDKNCVINKVTGNRCQYCRLQKCFEVGMSKESVRND", "note": "[R53G]", "abundance fitness": "0.003 ± 0.035"}, {"variant": "YKPCFVCQDKSSGYHYGVSACEGCKGFFRRSIQKNMIYTCHRDKNCVINKVTRNRCQYCRLQKCFEVGNSKESVRND", "note": "[M69N]", "abundance fitness": "-0.725 ± 0.28"}, {"variant": "YKPCFVCQDKSSGYHYGVSACEGCKGFFRRSIQKNMIYTCHRDKNCVINKVTRNRCQYCRLQKCFEVGRSKESVRND", "note": "[M69R]", "abundance fitness": "-0.741 ± 0.11"}, {"variant": "YKPCFVCQDKSSGYHYGVSACEGCKGFFRRSIQKNMIYTCHRDKNCVINKVTRNRCQYCRLQCCFEVGMSKESVRND", "note": "[K63C]", "abundance fitness": "-0.641 ± 0.18"}, {"variant": "YKPCFVCQDKSSGYHYGVSACEGCKGFCRRSIQKNMIYTCHRDKNCVINKVTRNRCQYCRLQKCFEVGMSKESVRND", "note": "[F28C]", "abundance fitness": "-0.895 ± 0.2"}, {"variant": "YKPCFVCQDKSSGYHYGVSACEGCKGFQRRSIQKNMIYTCHRDKNCVINKVTRNRCQYCRLQKCFEVGMSKESVRND", "note": "[F28Q]", "abundance fitness": "-0.807 ± 0.19"}, {"variant": "YKPCFVCQDKSSGYHYGVSACEGCKGFYRRSIQKNMIYTCHRDKNCVINKVTRNRCQYCRLQKCFEVGMSKESVRND", "note": "[F28Y]", "abundance fitness": "-0.439 ± 0.12"}, {"variant": "YKPCFVCQDKSSGYHYGVSACEGCDGFFRRSIQKNMIYTCHRDKNCVINKVTRNRCQYCRLQKCFEVGMSKESVRND", "note": "[K25D]", "abundance fitness": "0.031 ± 0.062"}, {"variant": "YKPCFVCQDKSSGYHYGVSACEGCKGFFRRSIQKNMIYTCHRDKNCVINKVTRNPCQYCRLQKCFEVGMSKESVRND", "note": "[R55P]", "abundance fitness": "0.218 ± 0.061"}, {"variant": "YKPCFVCQEKSSGYHYGVSACEGCKGFFRRSIQKNMIYTCHRDKNCVINKVTRNRCQYCRLQKCFEVGMSKESVRND", "note": "[D9E]", "abundance fitness": "-0.03 ± 0.046"}, {"variant": "YKPCFVCQSKSSGYHYGVSACEGCKGFFRRSIQKNMIYTCHRDKNCVINKVTRNRCQYCRLQKCFEVGMSKESVRND", "note": "[D9S]", "abundance fitness": "-0.71 ± 0.11"}, {"variant": "YKPCFVCQDKSSGYHYGVSACEGCKGFFRRSIQKNMIYTCHRDKNGVINKVTRNRCQYCRLQKCFEVGMSKESVRND", "note": "[C46G]", "abundance fitness": "-0.123 ± 0.1"}, {"variant": "YKPCFVCQDKSSGYHYGVSACEGCKGFFRRSIQKNMIYTCHRDKNCVINDVTRNRCQYCRLQKCFEVGMSKESVRND", "note": "[K50D]", "abundance fitness": "0.225 ± 0.12"}]}]}
